Data on 3 molecules can be found in patent publication US20120114652A1 (AbbVie / Abbott, published 2012).

Experiment [1] addresses T1, rat PAI-1 (rat, UniProt P20961 24-402).
T1 sequence: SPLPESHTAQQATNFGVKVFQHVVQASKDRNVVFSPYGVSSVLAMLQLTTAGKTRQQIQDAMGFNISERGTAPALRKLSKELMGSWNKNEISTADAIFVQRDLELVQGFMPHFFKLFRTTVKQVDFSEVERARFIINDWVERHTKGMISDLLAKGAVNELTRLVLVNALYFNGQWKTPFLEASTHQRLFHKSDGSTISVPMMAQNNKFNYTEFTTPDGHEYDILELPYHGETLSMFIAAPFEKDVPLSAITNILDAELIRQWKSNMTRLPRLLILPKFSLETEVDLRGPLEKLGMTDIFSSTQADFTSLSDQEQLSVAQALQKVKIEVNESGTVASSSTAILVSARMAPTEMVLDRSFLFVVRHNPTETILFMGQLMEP
Kind of experiment: cell-based or functional assay.

For experiment [2], the target named is T2, human PAI-1, active, wild-type, non-glycosylated (E. coli-derived) (human, UniProt P05121 24-402). Put plainly: cell-based or functional assay.
Experiment [3] has as its target T3, cynomolgus PAI-1 (cynomolgus, UniProt P05121 24-402 (human entry), limits assumed). Put plainly: cell-based or functional assay.
The target in experiment [4] is T4, mouse PAI-1 (mouse, UniProt P22777 24-401).
T4 sequence: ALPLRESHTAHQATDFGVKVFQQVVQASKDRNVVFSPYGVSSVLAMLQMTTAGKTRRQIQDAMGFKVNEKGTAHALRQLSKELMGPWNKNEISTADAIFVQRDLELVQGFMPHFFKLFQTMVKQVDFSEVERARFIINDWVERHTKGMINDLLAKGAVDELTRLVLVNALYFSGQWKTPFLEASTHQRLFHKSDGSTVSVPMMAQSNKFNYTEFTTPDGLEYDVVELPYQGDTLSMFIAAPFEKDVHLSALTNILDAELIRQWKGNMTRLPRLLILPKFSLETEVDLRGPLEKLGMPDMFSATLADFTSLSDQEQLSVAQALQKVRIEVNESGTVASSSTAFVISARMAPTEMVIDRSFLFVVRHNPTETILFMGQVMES
Put plainly: cell-based or functional assay.

Experiment [5] addresses T1, rat PAI-1. Kind of experiment: cell-based or functional assay. The source holds these as a separate data set.
For experiment [6], the target named is T2, human PAI-1, active, wild-type, …. Put plainly: cell-based or functional assay. This is another data set of the same source.
Experiment [7] has as its target T4, mouse PAI-1. Put plainly: cell-based or functional assay. The source holds these as a separate data set.
In experiment [8] the target is glycosylated active human PAI-1 produced by CHO cells (human, UniProt P05121 24-402, N-glycosylated (CHO-produced)). Kind of experiment: cell-based or functional assay.
Experiment [9] concerns the target T1, rat PAI-1. Put plainly: competition ELISA (DELFIA), IgG coated, competitor titrated against biotinylated active human PAI-1. A general note: In an ELISA, binding on a coated surface is turned into a signal by an enzyme label.
The target in experiment [10] is T5, latent human PAI-1 (human, UniProt P05121 24-402).
T5 construct: also called latent PAI-1
Described as above.

Experiment [11] concerns the target T6, rabbit PAI-1 (rabbit).
T6 chain: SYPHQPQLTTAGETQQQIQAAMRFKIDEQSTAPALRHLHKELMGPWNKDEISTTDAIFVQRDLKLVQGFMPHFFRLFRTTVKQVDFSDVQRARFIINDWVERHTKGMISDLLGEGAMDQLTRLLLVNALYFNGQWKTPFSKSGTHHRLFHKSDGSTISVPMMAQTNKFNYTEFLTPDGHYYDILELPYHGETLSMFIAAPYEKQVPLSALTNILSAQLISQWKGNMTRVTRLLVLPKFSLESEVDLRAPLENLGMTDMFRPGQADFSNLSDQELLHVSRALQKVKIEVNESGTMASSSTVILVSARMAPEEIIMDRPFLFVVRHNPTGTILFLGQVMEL
The description is as above.

Experiment [12] addresses T4, mouse PAI-1. The experiment is described as above.
The target of experiment [13] is T2, human PAI-1, active, wild-type, …. Kind of experiment: cell-based or functional assay. The source holds these as a separate data set.
For experiment [14], the target named is T3, cynomolgus PAI-1. Put plainly: cell-based or functional assay. The source holds these as a separate data set.
Experiment [15] has as its target T4, mouse PAI-1. Put plainly: cell-based or functional assay. This is another data set of the same source.
The target of experiment [16] is T2, human PAI-1, active, wild-type, …. Put plainly: SPR BIAcore, CAT-1001 amino-linked to CM3 chip, human wild-type PAI-1 as analyte, 1:1 Langmuir. On the technique in general: SPR reads the build-up and loss of mass on a sensor chip optically.
Experiment [17] concerns the target T1, rat PAI-1. Put plainly: cell-based or functional assay. The source holds these as a separate data set.
The target in experiment [18] is T7, α1-antichymotrypsin (UniProt P01011 24-423).
T7 sequence (looked up): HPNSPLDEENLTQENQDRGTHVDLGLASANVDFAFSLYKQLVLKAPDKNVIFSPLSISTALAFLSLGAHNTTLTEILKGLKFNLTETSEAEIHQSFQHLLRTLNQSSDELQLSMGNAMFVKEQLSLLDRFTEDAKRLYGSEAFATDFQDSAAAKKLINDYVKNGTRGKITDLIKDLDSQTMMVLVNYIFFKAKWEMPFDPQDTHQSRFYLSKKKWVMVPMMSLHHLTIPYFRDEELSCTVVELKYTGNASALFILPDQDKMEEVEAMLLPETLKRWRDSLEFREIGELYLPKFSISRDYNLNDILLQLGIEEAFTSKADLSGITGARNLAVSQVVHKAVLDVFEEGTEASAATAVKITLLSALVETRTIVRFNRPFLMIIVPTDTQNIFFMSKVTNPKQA
Kind of experiment: competition ELISA (DELFIA): PICK167_A01-fgl IgG1 (CAT-1001) coated on the plate, biotinylated human PAI-1, titration of the unlabelled test antigen.

In experiment [19] the target is T8, PAI-3 (UniProt P05154 26-406, limits assumed).
T8 sequence (looked up): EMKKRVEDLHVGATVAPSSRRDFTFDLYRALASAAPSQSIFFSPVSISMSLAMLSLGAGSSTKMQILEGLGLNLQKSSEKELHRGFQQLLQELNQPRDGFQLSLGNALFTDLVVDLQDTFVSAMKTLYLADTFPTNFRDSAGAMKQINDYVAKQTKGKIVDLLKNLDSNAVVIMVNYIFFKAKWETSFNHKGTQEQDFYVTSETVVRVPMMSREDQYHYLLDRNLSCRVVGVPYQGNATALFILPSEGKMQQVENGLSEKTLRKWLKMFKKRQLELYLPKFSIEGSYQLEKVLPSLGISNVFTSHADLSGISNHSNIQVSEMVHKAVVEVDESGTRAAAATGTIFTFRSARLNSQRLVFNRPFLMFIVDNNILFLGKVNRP
The experiment is described as above.

Experiment [20] concerns the target T9, α1-antitrypsin (UniProt P01009 25-418).
T9 construct: also called alpha-1-antitrypsin
Described as above.

Experiment [21] deals with T10, α2-antiplasmin (UniProt P08697 40-491, limits assumed).
T10 sequence (looked up): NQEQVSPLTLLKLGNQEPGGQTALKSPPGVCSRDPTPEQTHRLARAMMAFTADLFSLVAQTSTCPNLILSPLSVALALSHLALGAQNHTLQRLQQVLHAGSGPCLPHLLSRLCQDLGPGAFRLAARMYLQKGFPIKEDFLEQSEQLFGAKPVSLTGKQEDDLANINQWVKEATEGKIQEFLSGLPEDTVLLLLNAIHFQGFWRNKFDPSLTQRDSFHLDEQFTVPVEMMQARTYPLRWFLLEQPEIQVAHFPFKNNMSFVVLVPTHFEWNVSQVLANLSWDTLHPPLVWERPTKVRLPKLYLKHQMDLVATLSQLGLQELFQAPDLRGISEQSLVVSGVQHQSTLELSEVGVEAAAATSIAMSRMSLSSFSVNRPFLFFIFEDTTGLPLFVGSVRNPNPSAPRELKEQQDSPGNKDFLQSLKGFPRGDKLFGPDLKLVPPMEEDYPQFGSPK
The experiment is described as above.

Experiment [22] concerns the target antithrombin III (UniProt P01008 33-464). The experiment is described as above.
In experiment [23] the target is PAI-2 (UniProt P05120 1-415, limits assumed). The experiment is described as above.

B1: Antibody 20, IgG1, not germlined (antibody, V domains shown)
VH: QVQLQQSGAEVKKPGSSVKVSCKASGGTFSSYAISWVRQAPGQGLEWMGGIIPTFGTANYAQKFQGRVTITADESTSTAYMELSSLRSEDTAVYYCAREKRQWLEGHFDYWGRGTLVTVSS
VL: DIQMTQSPSTLSASVGDRVTITCRASEGIYHELAWYQQKPGKAPKLLIYRASSLASGVPSRFSGSRSGTEFTLTISSLQPDDFATYYCQQYSDYPLTFGGGTKVEIK
notes: whole IgG1; also called Ab 20
Turning to B1, the IC50 chromogenic in experiment [1] was found to be 2.9 nM; in [2], 1.6 nM; in [3], 0.8 nM; in [4], 1.4 nM. In addition, the IC50 ratio rat/human in [1] stood at 1.8. The IC50 ratio cyno/human in experiment [3] was found to be 0.5. Also, in experiment [4], the IC50 ratio mouse/human is 0.9. For the same molecule, the “IC50 HT-1080 Exo PAI-1” value in experiment [5] came to 16.2 nM; in experiment [6], 7.3 nM; in experiment [7], 5.9 nM. Also, the “IC50 chromogenic, hu glyco” value in experiment [8] came out at 1.3 nM. Also, the IC50 ratio rat/wt in [9] amounted to 2.3. Further, the IC50 ratio latent/wt in experiment [10] was 7.5. Further, in experiment [11], the IC50 ratio rabbit/wt is 9.1. The IC50 ratio mouse/wt in experiment [12] amounted to 7.6.

B2: Antibody 08, scFv (scFv, V domains shown)
VH: QVQLVQSGAEVKKPGSSVKVSCKASGGTFSSYAISWVRQAPGQGLEWMGGIIPTFGTANYAQKFQGRVTITADESTSTAYMELSSLRSEDTAVYYCARERRQWLEGHFDYWGRGTLVTVSS
VL: DIQMTQSPSTLSASVGDRVTITCRASEGIYHNLAWYQQKPGKAPKLLIYKASSLASGVPSRFSGSRSGTEFTLTISSLQPDDFATYYCQQYSNYPLTFGGGTKVEIK
For B2, the “IC50 chromogenic (FIG. 2a)” value in experiment [13] turned out to be 3.6 nM. The “IC50 chromogenic (FIG. 2b)” value in [14] was found to be 0.8 nM. The “IC50 chromogenic (FIG. 2d)” value in [15] is 2.6 nM. In addition, the IC50 chromogenic in experiment [1] is 3 nM; in experiment [2] it was 3.2 nM; in experiment [3] it was 1 nM. In addition, the “IC50 HT-1080 Exo PAI-1” value came to 50.1 nM in experiment [5], 23.7 nM in experiment [6] and 26.2 nM in experiment [7].

B3: PICK167_A01-fgl IgG1 (CAT-1001) (antibody, V domains shown)
VH: QVQLVQSGAEVKKPGSSVKVSCKASGGTFSSYAISWVRQAPGQGLEWMGGIIPTFGTANYAQKFQGRVTITADESTSTAYMELSSLRSEDTAVYYCARERRQWLEGHFDYWGRGTLVTVSS
VL: DIQMTQSPSTLSASVGDRVTITCRASEGIYHNLAWYQQKPGKAPKLLIYKASSLASGVPSRFSGSRSGTEFTLTISSLQPDDFATYYCQQYSNYPLTFGGGTKVEIKR
notes: fully germlined variant, made as an IgG1 only; also called PICK67A01-fgl
For orientation: Kd means the equilibrium constant for the complex coming apart. Low values mean higher affinity, high ones lower affinity. With B3, in experiment [16], the Kd was found to be 0.016 nM. The figures for the “IC50, HT1080 plasminogen activation assay” value in experiment [17] and in experiment [13] were 22.8 nM and 13.2 nM, respectively. Further, the “IC50, PAI-1:tPA functional assay” value in experiment [17] amounted to 3.07 nM; in experiment [13], 1.65 nM; in experiment [14], 0.77 nM. In addition, the “pIC50, HT1080 plasminogen activation assay” value in experiment [17] came to 7.64; in [13], 7.87. For the same molecule, the binding result in experiment [18], in [19], in experiment [20], in [21], in [22] and in experiment [23] was “no binding (tested: log M about -6.3 (about 5e-7 M))” in each case.
